Paper PMC4603552
Read-outs that look alike come from different tables or passages of the source.

Row | Substance | other (SUMOylation at K65) | other (SUMOylation at K160)
1 | PML (PML-IV): K65R (FLAG-PML-IV-GFP, CHO-K1) | decreases | –
2 | PML (PML-IV): K160R (FLAG-PML-IV-GFP, CHO-K1) | – | decreases
3 | PML (PML-IV): K65R in FLAG-PML-IV (aa 49-633) | decreases | –
